Experimental data: publication PMC12102759 (2025)

B1: AXIN1 peptide 237-252 (Axin-1), 16-mer library wild type / PP2A B56 (PPP2R5A B56 domain, residues 1-486) (parent complex)
chain 1: YLPTLNEDEEWKADQD
chain 2: not shown
B2: TPTE2 peptide 92-107 (Phosphatidylinositol 3,4,5-trisphosphate 3-phosphatase TPTE2), 16-mer library wild type / TLN1 PTB (TLN1 Phosphotyrosine-binding (PTB) domain, residues 309-401) (parent complex)
chain 1: LADLIFTDSKLYIPLE
chain 2: GVSFFLVKEKMKGKNKLVPRLLGITKECVMRVDEKTKEVIQEWNLTNIKRWAASPKSFTLDFGDYQDGYYSVQTTEGEQIAQLIAGYIDIILK

Variants of: B1
Experiment: proteomic peptide phage display deep mutational scan (ProP-PD DMS): M13 P8 16-mer library selected against immobilised GST-tagged bait for four days (rounds), NGS of the eluted pools per day and pseudo-replica; bait immobilised on MaxiSorp plates (10 µg), library pre-cleared on GST, 2 h binding at 4 °C, five washes; one round per day, days 1-4; value from days 2 and 3

Variant	screen value
chain 1 Q15A	0.00159 average fractional NGS count over selection days 2 and 3 (reads of this peptide / all reads for the bait, averaged over …
chain 1 Q15V	0.000515 average fractional NGS count over selection days 2 and 3 (reads of this peptide / all reads for the bait, averaged over …
chain 1 Q15N	0.00887 average fractional NGS count over selection days 2 and 3 (reads of this peptide / all reads for the bait, averaged over …
chain 1 Q15T	0.0102 average fractional NGS count over selection days 2 and 3 (reads of this peptide / all reads for the bait, averaged over …
chain 1 Q15P	0.000686 average fractional NGS count over selection days 2 and 3 (reads of this peptide / all reads for the bait, averaged over …
chain 1 Q15S	0.00176 average fractional NGS count over selection days 2 and 3 (reads of this peptide / all reads for the bait, averaged over …
chain 1 E10Y	0.00105 average fractional NGS count over selection days 2 and 3 (reads of this peptide / all reads for the bait, averaged over …
chain 1 E10M	0.00109 average fractional NGS count over selection days 2 and 3 (reads of this peptide / all reads for the bait, averaged over …
chain 1 E10P	0.00206 average fractional NGS count over selection days 2 and 3 (reads of this peptide / all reads for the bait, averaged over …
chain 1 E10V	0.0046 average fractional NGS count over selection days 2 and 3 (reads of this peptide / all reads for the bait, averaged over …
chain 1 E10T	0.00217 average fractional NGS count over selection days 2 and 3 (reads of this peptide / all reads for the bait, averaged over …
chain 1 D8E	0.000771 average fractional NGS count over selection days 2 and 3 (reads of this peptide / all reads for the bait, averaged over …
chain 1 D8R	0.000182 average fractional NGS count over selection days 2 and 3 (reads of this peptide / all reads for the bait, averaged over …
chain 1 D8F	0.000675 average fractional NGS count over selection days 2 and 3 (reads of this peptide / all reads for the bait, averaged over …
chain 1 D8H	0.00852 average fractional NGS count over selection days 2 and 3 (reads of this peptide / all reads for the bait, averaged over …
chain 1 D8Y	0.00257 average fractional NGS count over selection days 2 and 3 (reads of this peptide / all reads for the bait, averaged over …
chain 1 D8G	0.0025 average fractional NGS count over selection days 2 and 3 (reads of this peptide / all reads for the bait, averaged over …
chain 1 W11H	0.000184 average fractional NGS count over selection days 2 and 3 (reads of this peptide / all reads for the bait, averaged over …
chain 1 W11S	0.000194 average fractional NGS count over selection days 2 and 3 (reads of this peptide / all reads for the bait, averaged over …
chain 1 W11F	0.0013 average fractional NGS count over selection days 2 and 3 (reads of this peptide / all reads for the bait, averaged over …
chain 1 W11R	0.000154 average fractional NGS count over selection days 2 and 3 (reads of this peptide / all reads for the bait, averaged over …
chain 1 W11T	0.000334 average fractional NGS count over selection days 2 and 3 (reads of this peptide / all reads for the bait, averaged over …
chain 1 W11L	0.000123 average fractional NGS count over selection days 2 and 3 (reads of this peptide / all reads for the bait, averaged over …

Variant	screen value
chain 1 L5V	0.00197 average fractional NGS count over selection days 2 and 3 (reads of this peptide / all reads for the bait, averaged over …
chain 1 L5W	0.000869 average fractional NGS count over selection days 2 and 3 (reads of this peptide / all reads for the bait, averaged over …
chain 1 L5I	0.00162 average fractional NGS count over selection days 2 and 3 (reads of this peptide / all reads for the bait, averaged over …
chain 1 K12N	0.00219 average fractional NGS count over selection days 2 and 3 (reads of this peptide / all reads for the bait, averaged over …
chain 1 K12R	0.00196 average fractional NGS count over selection days 2 and 3 (reads of this peptide / all reads for the bait, averaged over …
chain 1 K12Q	0.00267 average fractional NGS count over selection days 2 and 3 (reads of this peptide / all reads for the bait, averaged over …
chain 1 K12H	0.0202 average fractional NGS count over selection days 2 and 3 (reads of this peptide / all reads for the bait, averaged over …
chain 1 K12V	0.00977 average fractional NGS count over selection days 2 and 3 (reads of this peptide / all reads for the bait, averaged over …
chain 1 D14S	0.00823 average fractional NGS count over selection days 2 and 3 (reads of this peptide / all reads for the bait, averaged over …
chain 1 D14N	0.00275 average fractional NGS count over selection days 2 and 3 (reads of this peptide / all reads for the bait, averaged over …
chain 1 D14Y	0.00582 average fractional NGS count over selection days 2 and 3 (reads of this peptide / all reads for the bait, averaged over …
chain 1 D14I	0.000947 average fractional NGS count over selection days 2 and 3 (reads of this peptide / all reads for the bait, averaged over …
chain 1 D14A	0.00375 average fractional NGS count over selection days 2 and 3 (reads of this peptide / all reads for the bait, averaged over …
chain 1 D14T	0.00142 average fractional NGS count over selection days 2 and 3 (reads of this peptide / all reads for the bait, averaged over …
chain 1 D14G	0.00106 average fractional NGS count over selection days 2 and 3 (reads of this peptide / all reads for the bait, averaged over …
chain 1 D14V	0.00647 average fractional NGS count over selection days 2 and 3 (reads of this peptide / all reads for the bait, averaged over …
chain 1 P3A	0.000353 average fractional NGS count over selection days 2 and 3 (reads of this peptide / all reads for the bait, averaged over …
chain 1 P3Q	0.000844 average fractional NGS count over selection days 2 and 3 (reads of this peptide / all reads for the bait, averaged over …
chain 1 P3T	0.000276 average fractional NGS count over selection days 2 and 3 (reads of this peptide / all reads for the bait, averaged over …
chain 1 Y1S	0.000305 average fractional NGS count over selection days 2 and 3 (reads of this peptide / all reads for the bait, averaged over …
chain 1 Y1W	0.000316 average fractional NGS count over selection days 2 and 3 (reads of this peptide / all reads for the bait, averaged over …
chain 1 T4A	0.000216 average fractional NGS count over selection days 2 and 3 (reads of this peptide / all reads for the bait, averaged over …
chain 1 T4P	0.00197 average fractional NGS count over selection days 2 and 3 (reads of this peptide / all reads for the bait, averaged over …

Variant	screen value
chain 1 T4Q	0.00351 average fractional NGS count over selection days 2 and 3 (reads of this peptide / all reads for the bait, averaged over …
chain 1 E9Q	0.0159 average fractional NGS count over selection days 2 and 3 (reads of this peptide / all reads for the bait, averaged over …
chain 1 E9R	0.000957 average fractional NGS count over selection days 2 and 3 (reads of this peptide / all reads for the bait, averaged over …
chain 1 E9T	0.00244 average fractional NGS count over selection days 2 and 3 (reads of this peptide / all reads for the bait, averaged over …
chain 1 E9I	0.00451 average fractional NGS count over selection days 2 and 3 (reads of this peptide / all reads for the bait, averaged over …
chain 1 E9P	0.00261 average fractional NGS count over selection days 2 and 3 (reads of this peptide / all reads for the bait, averaged over …
chain 1 E9S	0.00105 average fractional NGS count over selection days 2 and 3 (reads of this peptide / all reads for the bait, averaged over …
chain 1 A13V	0.000342 average fractional NGS count over selection days 2 and 3 (reads of this peptide / all reads for the bait, averaged over …
chain 1 A13L	0.000528 average fractional NGS count over selection days 2 and 3 (reads of this peptide / all reads for the bait, averaged over …
chain 1 A13P	0.00194 average fractional NGS count over selection days 2 and 3 (reads of this peptide / all reads for the bait, averaged over …
chain 1 A13R	0.000134 average fractional NGS count over selection days 2 and 3 (reads of this peptide / all reads for the bait, averaged over …
chain 1 A13N	0.000152 average fractional NGS count over selection days 2 and 3 (reads of this peptide / all reads for the bait, averaged over …
chain 1 N6W	0.000792 average fractional NGS count over selection days 2 and 3 (reads of this peptide / all reads for the bait, averaged over …
chain 1 N6L	0.00123 average fractional NGS count over selection days 2 and 3 (reads of this peptide / all reads for the bait, averaged over …
chain 1 N6T	0.00301 average fractional NGS count over selection days 2 and 3 (reads of this peptide / all reads for the bait, averaged over …
chain 1 N6Q	0.00501 average fractional NGS count over selection days 2 and 3 (reads of this peptide / all reads for the bait, averaged over …
chain 1 N6P	0.0105 average fractional NGS count over selection days 2 and 3 (reads of this peptide / all reads for the bait, averaged over …
chain 1 N6F	0.000398 average fractional NGS count over selection days 2 and 3 (reads of this peptide / all reads for the bait, averaged over …
chain 1 N6M	0.000248 average fractional NGS count over selection days 2 and 3 (reads of this peptide / all reads for the bait, averaged over …
chain 1 N6A	0.00273 average fractional NGS count over selection days 2 and 3 (reads of this peptide / all reads for the bait, averaged over …
chain 1 N6I	0.00196 average fractional NGS count over selection days 2 and 3 (reads of this peptide / all reads for the bait, averaged over …
chain 1 N6Y	0.000368 average fractional NGS count over selection days 2 and 3 (reads of this peptide / all reads for the bait, averaged over …
chain 1 N6S	0.0193 average fractional NGS count over selection days 2 and 3 (reads of this peptide / all reads for the bait, averaged over …

Variants of: B2
Experiment: as above

Variant	screen value
chain 1 I13R	0.00065 average fractional NGS count over selection days 2 and 3 (reads of this peptide / all reads for the bait, averaged over …
chain 1 I13E	0.000182 average fractional NGS count over selection days 2 and 3 (reads of this peptide / all reads for the bait, averaged over …
chain 1 I13F	0.000135 average fractional NGS count over selection days 2 and 3 (reads of this peptide / all reads for the bait, averaged over …
chain 1 I13K	0.0008 average fractional NGS count over selection days 2 and 3 (reads of this peptide / all reads for the bait, averaged over …
chain 1 I13L	0.000788 average fractional NGS count over selection days 2 and 3 (reads of this peptide / all reads for the bait, averaged over …
chain 1 P14W	0.000152 average fractional NGS count over selection days 2 and 3 (reads of this peptide / all reads for the bait, averaged over …
